{"source": "the supplement of paper PMC10065799", "about": "“High-throughput profiling of sequence recognition by tyrosine kinases and SH2 domains using bacterial peptide display” (eLife, 2023);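 on SH2 binding enrichment of the phosphorylated peptide, bacterial display: peptide library displayed on the E. coli surface as eCPX fusions, selected cells deep-sequenced, score is each peptide's frequency after selection divided by its frequency in the input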;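 on phosphorylation enrichment, bacterial display: 11-residue human phosphosite peptides and single-mutation variants displayed on the E. coli surface, counted by deep sequencing, each peptide's frequency after selection divided by its frequency in the unselected input library; frequency after pTyr selection over input frequency; kinase dosed for 20-30% of maximal phosphorylation in three min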", "data": [{"system": "c-Src", "experiment": "phosphorylation enrichment, bacterial display (enrichment ratio); higher = better substrate or ligand; peptides without Tyr show the background", "values": [{"sequence": "QEALEYFMKQT [PIK3CA_Y1038_M1043T]", "phosphorylation enrichment": 1.6}, {"sequence": "LTTEAYEWEPC [ELMOD3_Y61_R66C]", "phosphorylation enrichment": 5.66}, {"sequence": "SMAKFYASEIA [ACADSB_Y373_YF]", "phosphorylation enrichment": 0.464}, {"sequence": "EFITRYIDSLK [PSMA7_Y110_A112D_YF]", "phosphorylation enrichment": 0.456}, {"sequence": "YQASYYRRGDR [LTK_Y677_R673Q]", "phosphorylation enrichment": 0.527}, {"sequence": "ANFTEYVATSW [CDKL5_Y171_R175S_YF]", "phosphorylation enrichment": 0.578}, {"sequence": "GTATTYLCGVK [ALPL_Y117_A116T]", "phosphorylation enrichment": 0.472}, {"sequence": "DKITQYVEEVR [STX2_Y49_K54R]", "phosphorylation enrichment": 0.417}, {"sequence": "FSCLPCGRLAF [SLC52A2_Y305_Y305C_YF]", "phosphorylation enrichment": 0.33}, {"sequence": "YTFNSYYMHWV [IGHV1-46_Y51_T49N]", "phosphorylation enrichment": 2.06}, {"sequence": "RKLASYQSCLL [DHX37_Y1080_R1081Q]", "phosphorylation enrichment": 0.463}, {"sequence": "MTRDIYRASFF [ALK_Y1278_A1274T_YF]", "phosphorylation enrichment": 0.592}, {"sequence": "VDTPMYATMQR [TPO_Y55_A53P]", "phosphorylation enrichment": 3.3}, {"sequence": "GGYTWYCDGKK [PROS1_Y266_C265W]", "phosphorylation enrichment": 0.399}, {"sequence": "QAFSWYQHQRA [NDST1_Y714_R709Q_YF]", "phosphorylation enrichment": 0.371}, {"sequence": "IDSTPYRQWYE [RPS8_Y109]", "phosphorylation enrichment": 0.606}, {"sequence": "FYDANYDGKEY [MAPRE2_Y162]", "phosphorylation enrichment": 0.941}, {"sequence": "IHHIDYFKKTT [FGFR1_Y653_YF]", "phosphorylation enrichment": 0.545}, {"sequence": "IYKAAYFGVYD [SLC25A4_Y191_R188K]", "phosphorylation enrichment": 5.18}, {"sequence": "IVRSLYKDLED [VHL_Y185_E186K]", "phosphorylation enrichment": 0.445}, {"sequence": "FIGRIYLYLTK [GARS1_Y414]", "phosphorylation enrichment": 0.469}, {"sequence": "SFTDPYAQPPL [KMT2D_Y2378_YF]", "phosphorylation enrichment": 0.54}, {"sequence": "ARDVIYIIIPA [FRKtide_2014]", "phosphorylation enrichment": 1.52}, {"sequence": "RSDEDYLCREE [POR_Y573_Y575C]", "phosphorylation enrichment": 0.765}, {"sequence": "EHVMPYAANKN [GRIN2A_Y1431]", "phosphorylation enrichment": 0.375}, {"sequence": "DMLFQYLKQIE [RPAP3_Y569_YF]", "phosphorylation enrichment": 0.468}, {"sequence": "SKNSKYNAGST [PSEN1_Y315_E318G]", "phosphorylation enrichment": 0.737}, {"sequence": "MFNPCYGLFEF [NEDD4L_Y680_Y679C_YF]", "phosphorylation enrichment": 4.79}, {"sequence": "RGFRVYFTPDS [PTPRF_Y450_YF]", "phosphorylation enrichment": 0.714}]}, {"target": "Grb2 SH2 (UniProt P62993)", "sequence (P62993 whole entry, looked up)": "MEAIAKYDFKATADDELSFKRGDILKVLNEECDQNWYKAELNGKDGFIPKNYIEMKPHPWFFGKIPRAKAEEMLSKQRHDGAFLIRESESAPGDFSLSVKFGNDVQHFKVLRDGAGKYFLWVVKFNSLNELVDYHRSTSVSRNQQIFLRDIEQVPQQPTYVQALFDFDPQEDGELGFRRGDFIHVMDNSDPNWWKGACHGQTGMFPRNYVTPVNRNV", "experiment": "SH2 binding enrichment of the phosphorylated peptide, bacterial display (enrichment ratio); higher = better substrate or ligand; peptides without Tyr show the background", "values": [{"sequence": "QEALEYFMKQT [PIK3CA_Y1038_M1043T]", "SH2 binding enrichment": 0.584}, {"sequence": "LTTEAYEWEPC [ELMOD3_Y61_R66C]", "SH2 binding enrichment": 1.02}, {"sequence": "SMAKFYASEIA [ACADSB_Y373_YF]", "SH2 binding enrichment": 0.788}, {"sequence": "EFITRYIDSLK [PSMA7_Y110_A112D_YF]", "SH2 binding enrichment": 0.818}, {"sequence": "YQASYYRRGDR [LTK_Y677_R673Q]", "SH2 binding enrichment": 0.684}, {"sequence": "ANFTEYVATSW [CDKL5_Y171_R175S_YF]", "SH2 binding enrichment": 0.757}, {"sequence": "GTATTYLCGVK [ALPL_Y117_A116T]", "SH2 binding enrichment": 0.67}, {"sequence": "DKITQYVEEVR [STX2_Y49_K54R]", "SH2 binding enrichment": 0.905}, {"sequence": "FSCLPCGRLAF [SLC52A2_Y305_Y305C_YF]", "SH2 binding enrichment": 1.36}, {"sequence": "YTFNSYYMHWV [IGHV1-46_Y51_T49N]", "SH2 binding enrichment": 1.12}, {"sequence": "RKLASYQSCLL [DHX37_Y1080_R1081Q]", "SH2 binding enrichment": 0.784}, {"sequence": "MTRDIYRASFF [ALK_Y1278_A1274T_YF]", "SH2 binding enrichment": 0.811}, {"sequence": "VDTPMYATMQR [TPO_Y55_A53P]", "SH2 binding enrichment": 0.803}, {"sequence": "GGYTWYCDGKK [PROS1_Y266_C265W]", "SH2 binding enrichment": 0.667}, {"sequence": "QAFSWYQHQRA [NDST1_Y714_R709Q_YF]", "SH2 binding enrichment": 0.778}, {"sequence": "IDSTPYRQWYE [RPS8_Y109]", "SH2 binding enrichment": 0.731}, {"sequence": "FYDANYDGKEY [MAPRE2_Y162]", "SH2 binding enrichment": 0.823}, {"sequence": "IHHIDYFKKTT [FGFR1_Y653_YF]", "SH2 binding enrichment": 0.585}, {"sequence": "IYKAAYFGVYD [SLC25A4_Y191_R188K]", "SH2 binding enrichment": 0.923}, {"sequence": "IVRSLYKDLED [VHL_Y185_E186K]", "SH2 binding enrichment": 0.999}, {"sequence": "FIGRIYLYLTK [GARS1_Y414]", "SH2 binding enrichment": 1.05}, {"sequence": "SFTDPYAQPPL [KMT2D_Y2378_YF]", "SH2 binding enrichment": 0.651}, {"sequence": "ARDVIYIIIPA [FRKtide_2014]", "SH2 binding enrichment": 1.82}, {"sequence": "RSDEDYLCREE [POR_Y573_Y575C]", "SH2 binding enrichment": 0.947}, {"sequence": "EHVMPYAANKN [GRIN2A_Y1431]", "SH2 binding enrichment": 0.792}, {"sequence": "DMLFQYLKQIE [RPAP3_Y569_YF]", "SH2 binding enrichment": 0.93}, {"sequence": "SKNSKYNAGST [PSEN1_Y315_E318G]", "SH2 binding enrichment": 0.581}, {"sequence": "MFNPCYGLFEF [NEDD4L_Y680_Y679C_YF]", "SH2 binding enrichment": 0.929}, {"sequence": "RGFRVYFTPDS [PTPRF_Y450_YF]", "SH2 binding enrichment": 1.16}]}, {"target": "SHP2-C SH2", "experiment": "SH2 binding enrichment of the phosphorylated peptide, bacterial display (enrichment ratio); higher = better substrate or ligand; peptides without Tyr show the background", "values": [{"sequence": "QEALEYFMKQT [PIK3CA_Y1038_M1043T]", "SH2 binding enrichment": 0.685}, {"sequence": "LTTEAYEWEPC [ELMOD3_Y61_R66C]", "SH2 binding enrichment": 0.959}, {"sequence": "SMAKFYASEIA [ACADSB_Y373_YF]", "SH2 binding enrichment": 0.674}, {"sequence": "EFITRYIDSLK [PSMA7_Y110_A112D_YF]", "SH2 binding enrichment": 0.713}, {"sequence": "YQASYYRRGDR [LTK_Y677_R673Q]", "SH2 binding enrichment": 0.442}, {"sequence": "ANFTEYVATSW [CDKL5_Y171_R175S_YF]", "SH2 binding enrichment": 0.809}, {"sequence": "GTATTYLCGVK [ALPL_Y117_A116T]", "SH2 binding enrichment": 1.15}, {"sequence": "DKITQYVEEVR [STX2_Y49_K54R]", "SH2 binding enrichment": 0.719}, {"sequence": "FSCLPCGRLAF [SLC52A2_Y305_Y305C_YF]", "SH2 binding enrichment": 1.38}, {"sequence": "YTFNSYYMHWV [IGHV1-46_Y51_T49N]", "SH2 binding enrichment": 0.951}, {"sequence": "RKLASYQSCLL [DHX37_Y1080_R1081Q]", "SH2 binding enrichment": 0.646}, {"sequence": "MTRDIYRASFF [ALK_Y1278_A1274T_YF]", "SH2 binding enrichment": 0.563}, {"sequence": "VDTPMYATMQR [TPO_Y55_A53P]", "SH2 binding enrichment": 1.27}, {"sequence": "GGYTWYCDGKK [PROS1_Y266_C265W]", "SH2 binding enrichment": 0.524}, {"sequence": "QAFSWYQHQRA [NDST1_Y714_R709Q_YF]", "SH2 binding enrichment": 0.86}, {"sequence": "IDSTPYRQWYE [RPS8_Y109]", "SH2 binding enrichment": 0.814}, {"sequence": "FYDANYDGKEY [MAPRE2_Y162]", "SH2 binding enrichment": 0.473}, {"sequence": "IHHIDYFKKTT [FGFR1_Y653_YF]", "SH2 binding enrichment": 0.526}, {"sequence": "IYKAAYFGVYD [SLC25A4_Y191_R188K]", "SH2 binding enrichment": 1.11}, {"sequence": "IVRSLYKDLED [VHL_Y185_E186K]", "SH2 binding enrichment": 0.716}, {"sequence": "FIGRIYLYLTK [GARS1_Y414]", "SH2 binding enrichment": 1.25}, {"sequence": "SFTDPYAQPPL [KMT2D_Y2378_YF]", "SH2 binding enrichment": 0.656}, {"sequence": "ARDVIYIIIPA [FRKtide_2014]", "SH2 binding enrichment": 2.09}, {"sequence": "RSDEDYLCREE [POR_Y573_Y575C]", "SH2 binding enrichment": 0.749}, {"sequence": "EHVMPYAANKN [GRIN2A_Y1431]", "SH2 binding enrichment": 0.747}, {"sequence": "DMLFQYLKQIE [RPAP3_Y569_YF]", "SH2 binding enrichment": 0.851}, {"sequence": "SKNSKYNAGST [PSEN1_Y315_E318G]", "SH2 binding enrichment": 0.557}, {"sequence": "MFNPCYGLFEF [NEDD4L_Y680_Y679C_YF]", "SH2 binding enrichment": 0.558}, {"sequence": "RGFRVYFTPDS [PTPRF_Y450_YF]", "SH2 binding enrichment": 0.908}]}, {"target": "c-Src SH2", "experiment": "SH2 binding enrichment of the phosphorylated peptide, bacterial display (enrichment ratio); higher = better substrate or ligand; peptides without Tyr show the background", "values": [{"sequence": "QEALEYFMKQT [PIK3CA_Y1038_M1043T]", "SH2 binding enrichment": 0.41}, {"sequence": "LTTEAYEWEPC [ELMOD3_Y61_R66C]", "SH2 binding enrichment": 1.37}, {"sequence": "SMAKFYASEIA [ACADSB_Y373_YF]", "SH2 binding enrichment": 0.393}, {"sequence": "EFITRYIDSLK [PSMA7_Y110_A112D_YF]", "SH2 binding enrichment": 0.552}, {"sequence": "YQASYYRRGDR [LTK_Y677_R673Q]", "SH2 binding enrichment": 0.418}, {"sequence": "ANFTEYVATSW [CDKL5_Y171_R175S_YF]", "SH2 binding enrichment": 0.545}, {"sequence": "GTATTYLCGVK [ALPL_Y117_A116T]", "SH2 binding enrichment": 0.483}, {"sequence": "DKITQYVEEVR [STX2_Y49_K54R]", "SH2 binding enrichment": 0.45}, {"sequence": "FSCLPCGRLAF [SLC52A2_Y305_Y305C_YF]", "SH2 binding enrichment": 1.62}, {"sequence": "YTFNSYYMHWV [IGHV1-46_Y51_T49N]", "SH2 binding enrichment": 0.839}, {"sequence": "RKLASYQSCLL [DHX37_Y1080_R1081Q]", "SH2 binding enrichment": 0.517}, {"sequence": "MTRDIYRASFF [ALK_Y1278_A1274T_YF]", "SH2 binding enrichment": 0.529}, {"sequence": "VDTPMYATMQR [TPO_Y55_A53P]", "SH2 binding enrichment": 2.09}, {"sequence": "GGYTWYCDGKK [PROS1_Y266_C265W]", "SH2 binding enrichment": 0.455}, {"sequence": "QAFSWYQHQRA [NDST1_Y714_R709Q_YF]", "SH2 binding enrichment": 0.709}, {"sequence": "IDSTPYRQWYE [RPS8_Y109]", "SH2 binding enrichment": 0.771}, {"sequence": "FYDANYDGKEY [MAPRE2_Y162]", "SH2 binding enrichment": 0.725}, {"sequence": "IHHIDYFKKTT [FGFR1_Y653_YF]", "SH2 binding enrichment": 0.526}, {"sequence": "IYKAAYFGVYD [SLC25A4_Y191_R188K]", "SH2 binding enrichment": 2.31}, {"sequence": "IVRSLYKDLED [VHL_Y185_E186K]", "SH2 binding enrichment": 0.785}, {"sequence": "FIGRIYLYLTK [GARS1_Y414]", "SH2 binding enrichment": 0.74}, {"sequence": "SFTDPYAQPPL [KMT2D_Y2378_YF]", "SH2 binding enrichment": 0.534}, {"sequence": "ARDVIYIIIPA [FRKtide_2014]", "SH2 binding enrichment": 1.44}, {"sequence": "RSDEDYLCREE [POR_Y573_Y575C]", "SH2 binding enrichment": 0.595}, {"sequence": "EHVMPYAANKN [GRIN2A_Y1431]", "SH2 binding enrichment": 0.484}, {"sequence": "DMLFQYLKQIE [RPAP3_Y569_YF]", "SH2 binding enrichment": 0.652}, {"sequence": "SKNSKYNAGST [PSEN1_Y315_E318G]", "SH2 binding enrichment": 0.349}, {"sequence": "MFNPCYGLFEF [NEDD4L_Y680_Y679C_YF]", "SH2 binding enrichment": 0.67}, {"sequence": "RGFRVYFTPDS [PTPRF_Y450_YF]", "SH2 binding enrichment": 1.2}]}]}
